Experimental data as given in patent US20240218071A1 (ANHUI BIOX VISION BIOLOGICAL TECHNOLOGY, published 2024).
Substitutions are numbered along the chain they refer to.

B1: C8-8 antibody (antibody, V domains shown)
VH: EVQLLESGGGLVRPGGSLRLSCAASGFTFGSYEMNWVRQAPGKGLEWVSYISSSGETTDYADSVKGRFTVSRDNSKNLLYLQMNSLRAEDTAVYYCARDVFFFDSSGPPGAYGMDVWGQGTMVTVSS
VL: DIQLTQSPSSLTASVGDRVTITCRSSQGIRSSLAWYQQKPGKPPKLLIYGASSLEGGVPSRFSGSGSGTDFTLTISSLQPEDFATYYCQQLNSFPSTFGQGTKLEIK
B2: C8-11 antibody (antibody, V domains shown)
VH: B1 VH with F29P, S54A, P108D, P109N
VL: B1 VL with E55L
B3: C8-3 antibody (antibody, V domains shown)
VH: B1 VH with F29A, P108D, P109N
VL: B1 VL with G56V
B4: C8-2 antibody (antibody, V domains shown)
VH: B1 VH with D104S, S105P, P108D, P109N
VL: B1 VL
B5: C8-1 antibody (antibody, V domains shown)
VH: B1 VH with P108D, P109N
VL: B1 VL with N92A
B6: C8-4 antibody (antibody, V domains shown)
VH: B1 VH with P109R
VL: B1 VL
B7: C8-9 antibody (antibody, V domains shown)
VH: B1 VH with G107R, P109N
VL: B1 VL
B8: C8-6 antibody (antibody, V domains shown)
VH: B1 VH with P108S
VL: B1 VL
B9: C8-7 antibody (antibody, V domains shown)
VH: B1 VH with P108D, P109N, G110H
VL: B1 VL
B10: C8-10 antibody (antibody, V domains shown)
VH: B1 VH with P108F
VL: B1 VL
B11: C8-5 antibody (antibody, V domains shown)
VH: B1 VH with N35D, G66P, P108D, P109N
VL: B1 VL with A51G
B12: APX005M (antibody, V domains shown)
VH: QVQLVESGGGVVQPGRSLRLSCAASGFSFSSTYVCWVRQAPGKGLEWIACIYTGDGTNYSASWAKGRFTISKDSSKNTVYLQMNSLRAEDTAVYFCARPDITYGFAINFWGPGTLVTVSS
VL: DIQMTQSPSSLSASVGDRVTIKCQASQSISSRLAWYQQKPGKPPKLLIYRASTLASGVPSRFSGSGSGTDFTLTISSLQPEDVATYYCQCTGYGISWPIGGGTKVEIK
B13: C8 clone anti-CD40 full-length antibody (antibody, human IgG1, kappa, V domains shown)
VH: B1 VH with P108D, P109N
VL: DIQLTQSPSSLTASVGDRVTITCRSSQGIRSSLAWYQQKPGKPPKLLIYGASSLEGGVPSRFSGSGSGTDFTLTISSLQPEDFATYYCQQLNSFPSTFGQGTKLEIKR
notes: also called C8-WT; C8 parent antibody
B14: Dacetuzumab (antibody, V domains shown)
VH: EVQLVESGGGLVQPGGSLRLSCAASGYSFTGYYIHWVRQAPGKGLEWVARVIPNAGGTSYNQKFKGRFTLSVDNSKNTAYLQMNSLRAEDTAVYYCAREGIYWWGQGTLVTVSS
VL: DIQMTQSPSSLSASVGDRVTITCRSSQSLVHSNGNTFLHWYQQKPGKAPKLLIYTVSNRFSGVPSRFSGSGSGTDFTLTISSLQPEDFATYFCSQTTHVPWTFGQGTKVEIKR

The binders below were run against T1, full-length mouse CD40 expressed on CHO-K cells (mouse, UniProt P27512 20-289) (assay: flow cytometry on CHO-K-mouseCD40 cells, FITC anti-human IgG Fc secondary antibody).
T1 construct: whole, on cells; also called CHO-K-mouseCD40 cells; mouse CD40 antigen
Protocol: The cross-reactivity of the affinity variant candidate antibody prepared in example 4.3 to mouse CD40 was tested using artificially constructed CHO-K cells expressing full-length mouse CD40 (Uniprot #P27512) (CHO-K-mouseCD40 cells). The CHO-K cells expressing mouse CD40 were seeded into a 96-well plate at 1.0×10⁵ cells/well. 100 μL of diluted affinity variant candidate antibody and the control antibody (APX005) were added to the 96-well plate, respectively. […] The cells were then washed and tested by flow cytometry.

T1 sequence (P27512 20-289): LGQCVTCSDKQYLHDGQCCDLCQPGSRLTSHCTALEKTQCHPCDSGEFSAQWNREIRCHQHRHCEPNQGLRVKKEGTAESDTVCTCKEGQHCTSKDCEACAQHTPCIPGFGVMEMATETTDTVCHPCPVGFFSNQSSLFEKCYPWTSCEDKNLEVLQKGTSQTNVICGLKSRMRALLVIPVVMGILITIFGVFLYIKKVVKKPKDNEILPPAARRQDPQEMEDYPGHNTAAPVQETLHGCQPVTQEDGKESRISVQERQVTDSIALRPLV

| binding result | Binder |
| --- | --- |
| binds | B1 |
| binds | B2 |
| no binding (tested: 20 µg/mL) | B3 |
| binds | B4 |
| binds | B5 |
| no binding (tested: 20 µg/mL) | B6 |
| binds | B7 |
| binds | B8 |
| binds | B9 |
| binds | B10 |
| no binding (tested: 20 µg/mL) | B11 |

What follows are binders tested against T2, human CD40 expressed on the cell surface (human, UniProt P25942 21-277) (assay: cell-based or functional assay).
T2 sequence (P25942 21-277): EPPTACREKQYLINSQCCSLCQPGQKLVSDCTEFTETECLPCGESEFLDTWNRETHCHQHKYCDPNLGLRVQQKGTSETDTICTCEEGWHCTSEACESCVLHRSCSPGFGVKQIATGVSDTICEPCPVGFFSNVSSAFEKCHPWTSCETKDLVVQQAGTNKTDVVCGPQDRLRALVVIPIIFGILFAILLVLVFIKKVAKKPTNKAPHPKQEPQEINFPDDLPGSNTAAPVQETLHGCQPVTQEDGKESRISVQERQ

| CD95 expression on Ramos cells without crosslinking agent (FACS) [times weaker than APX005] | Binder |
| --- | --- |
| ~10 | B2 |
| ~10 | B4 |
| ~10 | B7 |
| ~10 | B8 |
| ~10 | B10 |

These binders were tested against T2, human CD40 expressed on the cell surface (assay: flow cytometry on CHO-K-huCD40 cells, APC anti-human IgG secondary antibody).
Protocol: (§1) 100 μL of diluted anti-CD40 candidate antibody prepared in example 4.3 was added to the 96-well plate. After incubation at 4° C. for 30 min, the cells were washed 5 times with a FACS buffer (PBS+5% FBS+2% BSA), added with 100 μL of APC-labeled anti-human IgG secondary antibody, and then incubated at 4° C. for 30 min. The cells were then washed and tested by flow cytometry.

| EC50 (read off the curve) [µg/mL] | Binder |
| --- | --- |
| ~0.7 | B12 |
| ~0.8 | B13 |
| ~0.8 | B3 |
| ~0.8 | B4 |
| ~0.8 | B5 |
| ~0.8 | B6 |
| ~0.8 | B8 |
| ~0.8 | B11 |

Biological target: T1, full-length mouse CD40 expressed on …
Assay: flow cytometry on CHO-K-mouseCD40 cells, FITC anti-human IgG Fc secondary antibody
Remark: another data set of the same source
Protocol: Similarly to example 1.3, CHO-K cells expressing full-length mouse CD40 (Uniprot: P27512) (hereinafter also referred to as “CHO-K-mouseCD40 cells”) were prepared. The cross-reactivity of the candidate C8 full-length anti-CD40 antibody prepared in example 1.4 to mouse CD40 was tested using the CHO-K-mouseCD40 cells. The CHO-K-mouseCD40 cells were seeded into a 96-well plate at 1.0×10⁵ cells/well. 100 μL of diluted anti-CD40 candidate antibody and two control antibodies (Dacetuzumab and APX005) were added to the 96-well plate, respectively. […] The cells were then washed and tested by flow cytometry.

| binding result | Binder |
| --- | --- |
| binds | B13 |

What follows are binders tested against T3, P17-His protein (human CD40 antigen) (human, UniProt P25942 21-193, limits assumed) (assay: BLI (Fortebio Octet RED96), antibody on Protein A sensor, P17-His 5-40 nM).
T3 construct: also called human CD40 antigen (P17-His)
Protocol: In this example, the affinity of C8 parent antibody (C8-WT) and affinity variant antibody for human CD40 antigen (P17-His) was detected using an Fortebio Octet RED96 instrument.
Material preparation: 1 g of BSA and 500 μL of Tween 20 were added to 1000 mL of 1×PBS and mixed uniformly. The mixture was filtered, and then subpackaged and stored. 0.1 mL of glycine solution (0.1 M, pH 2.0) was pipetted, 0.9 mL of ultrapure water was added, and the mixture was mixed uniformly. The antibodies were diluted to 10 μg/mL with a KB buffer, and the antigens were diluted with a KB buffer to serial concentration gradients, i.e., 40 nM, 20 nM, 10 nM, 5 nM and 0 nM.
Experiment procedure: The sample plate (GreinierBio, PN655209) was tested after a sensor (Protein A sensor) was pre-wetted in the dark for at least 10 min, and after confirming the accuracy, the test was performed according to the preset programs. KB buffer was added at 200 μL/well to the wells of columns 1, 10 and 12 of sample plate 1; the glycine solution (0.01 M, pH 2.0) was added to the wells of column 11; the prepared sample solution was added to the wells of columns 2-8 (5 replicate wells for one sample); and P17-His was sequentially added to the wells of column 9 in a descending order of the concentration.

T3 sequence (P25942 other isoform, or with tags, fused parts or gaps limits assumed): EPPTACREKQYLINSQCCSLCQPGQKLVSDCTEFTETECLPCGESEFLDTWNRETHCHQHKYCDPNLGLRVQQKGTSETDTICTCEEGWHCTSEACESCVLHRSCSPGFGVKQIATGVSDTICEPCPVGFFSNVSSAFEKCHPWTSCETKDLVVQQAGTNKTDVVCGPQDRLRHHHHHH

| Kd [nM] | koff [s⁻¹] | kon [M⁻¹ s⁻¹] | Binder |
| --- | --- | --- | --- |
| 6.3 | 0.0124 | 1.98e+06 | B12 |
| 10.3 | 0.011 | 1.07e+06 | B1 |
| 19.3 | 0.0164 | 853000 | B13 |
| 9.24 | 0.0148 | 1.6e+06 | B2 |
| 4.51 | 0.0111 | 2.46e+06 | B3 |
| 11.9 | 0.0111 | 932000 | B4 |
| 12.7 | 0.0148 | 1.16e+06 | B5 |
| 5.34 | 0.00725 | 1.36e+06 | B6 |
| 9.27 | 0.0112 | 1.21e+06 | B7 |
| 9.04 | 0.00984 | 1.09e+06 | B8 |
| 12.4 | 0.0111 | 895000 | B9 |
| 6.82 | 0.00847 | 1.24e+06 | B10 |
| 8.23 | 0.00818 | 994000 | B11 |

What follows are binders tested against T2, human CD40 expressed on the cell surface (assay: flow cytometry on CHO-K-huCD40 cells, APC anti-human IgG Fc secondary antibody).
Protocol: (§2) To confirm the binding activity and cross-reactivity of the full-length anti-CD40 antibody prepared in example 1.4 of the present invention to CD40, CHO-K-huCD40 cells or CHO-K-cynoCD40 cells were seeded into a 96-well plate at 1.0×10⁵ cells/well. 100 μL of diluted anti-CD40 candidate antibody prepared in example 1.4 was added to the 96-well plate. […] Then, the cells were washed, and the binding of the full-length anti-CD40 antibody to CD40 molecules expressed on the cell was detected by flow cytometry.

| EC50 (read off the curve) [µg/mL] | Binder |
| --- | --- |
| ~0.8 | B14 |
| ~0.8 | B13 |

What follows are binders tested against T4, cynomolgus monkey CD40 expressed on the cell surface (cynomolgus monkey, UniProt G7PG38 21-278) (assay: flow cytometry on CHO-K-cynoCD40 cells, APC anti-human IgG Fc secondary antibody).
T4 construct: also called CHO-K-cynoCD40 cells
Protocol: as §2

T4 sequence (G7PG38 entry or part of it limits assumed): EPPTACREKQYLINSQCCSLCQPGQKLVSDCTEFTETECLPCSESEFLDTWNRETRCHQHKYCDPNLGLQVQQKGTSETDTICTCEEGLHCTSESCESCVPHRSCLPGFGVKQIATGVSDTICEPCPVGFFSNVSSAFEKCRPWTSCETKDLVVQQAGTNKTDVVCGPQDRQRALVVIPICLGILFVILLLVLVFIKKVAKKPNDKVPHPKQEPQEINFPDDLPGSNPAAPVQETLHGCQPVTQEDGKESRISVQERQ

| binding result | Binder |
| --- | --- |
| binds | B13 |

Biological target: T2, human CD40 expressed on the cell surface
Assay: flow cytometry on CHO-K-huCD40 cells, APC anti-human IgG secondary antibody
Remark: another data set of the same source
Protocol: as §1

| EC50 (read off the curve) [µg/mL] | Binder |
| --- | --- |
| ~0.8 | B12 |
| ~0.7 | B1 |
| ~0.9 | B13 |
| ~2 | B2 |
| ~0.9 | B7 |
| ~0.9 | B9 |
| ~0.9 | B10 |
